The term Ki denotes a measure of affinity in units of concentration, obtained from inhibition or displacement.

Some results are limits rather than exact numbers.

For 11 substances, Ki results are on record in US20090029924A1.

Chain of Recombinant human furin (human) (P09958 108-714 limits assumed): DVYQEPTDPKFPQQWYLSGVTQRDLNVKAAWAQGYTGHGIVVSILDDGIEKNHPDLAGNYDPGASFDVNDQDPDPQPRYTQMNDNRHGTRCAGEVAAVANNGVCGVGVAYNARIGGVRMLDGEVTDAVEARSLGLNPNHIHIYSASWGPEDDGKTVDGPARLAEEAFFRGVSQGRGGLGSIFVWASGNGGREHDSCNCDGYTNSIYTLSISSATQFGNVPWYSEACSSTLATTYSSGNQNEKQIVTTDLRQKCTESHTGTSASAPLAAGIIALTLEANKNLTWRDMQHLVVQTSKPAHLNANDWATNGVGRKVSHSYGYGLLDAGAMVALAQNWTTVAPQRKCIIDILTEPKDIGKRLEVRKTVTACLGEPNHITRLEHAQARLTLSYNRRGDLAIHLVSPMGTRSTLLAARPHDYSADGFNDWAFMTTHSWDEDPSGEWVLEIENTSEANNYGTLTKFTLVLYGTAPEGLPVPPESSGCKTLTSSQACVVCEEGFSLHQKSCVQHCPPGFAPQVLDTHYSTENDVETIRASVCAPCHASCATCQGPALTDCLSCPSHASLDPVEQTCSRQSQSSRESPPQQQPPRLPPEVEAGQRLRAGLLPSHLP

This assay has as its target Recombinant human furin (human) (UniProt P09958). Briefly: furin, Pyr-RTKR-AMC cleavage.
For TPQR1RRRKKRG (peptide), the Ki was more than 100 nM.
Next, TPQRkRRRKKRG (peptide): more than 100 nM.
Next, TPQR5RRRKKRG (peptide): more than 100 nM.
With TPQR7RRRKKRG (peptide), the Ki is more than 100 nM.
Take TPQR2RRRKKRG (peptide): the Ki was more than 100 nM.
For the substance TPQReRRRKKRG (peptide), the Ki was more than 100 nM.
Next, TPQR3RRRKKRG (peptide): more than 100 nM; TPQRrRRRKKRG (peptide): more than 100 nM; TPQR6RRRKKRG (peptide): more than 100 nM.
Next, TPQR4RRRKKRG (peptide): more than 100 nM.
Next, TPQR8RRRKKRG (peptide): more than 100 nM.
